These results are taken from patent publication US20110293610A1 (published 2011).

This assay has as its target T1, biotinylated B Lymphocyte Stimulator, soluble form (human, UniProt Q9Y275 134-285, biotinylated with NHS-biotin, molar ratio 20:1 biotin:protein).
T1 construct: also called bio-B Lymphocyte Stimulator; free B Lymphocyte Stimulator
In words: phage scFv, receptor binding inhibition on IM9 cells. On the procedure:
Fifty-five μl of each appropriate phage supernatant was added to each well and the final volume in each well was 65 μl. Plates were then incubated at room temperature for 30 minutes.
Plates were washed three times in PBST and three times in PBS, tapped dry and 50 μl of streptavidin-Delfia (Wallac) was added to each well at 1:1000 dilution in the Manufacturer's assay buffer. The plates were then incubated at room temperature for 1 hour and washed six times in Delfia wash solution (Wallac). After tapping the plates dry, 100 μl per well of Delfia enhancement solution (Wallac) was added. The plates were gently tapped to encourage micelle formation, incubated at room temperature for 10 minutes, and fluorescence read on a Wallac 1420 workstation at […].

B1: I031F02 (scFv)
scFv: QVQLVQSGAEVRKPGSSVKVSCKASGGSFSSHVFSWVRQAPGQGLEWVGGITPKFATPNYAQKFQHRVTITADELTRTVFMDLSGLRSEDTAVYYCARGYDSSAFRAFDIWGQGTMVTVSSGGGGSGGGGSGGGGSAQSVLTQPPSVSGAPGQRVTISCTGSSSNIGAGYDVQWYQQLPGTAPKLLIHGNNNRPSGVPDRFSGSKSGTSASLAITGLQDEDEADYYCQSYDSSLSFSGYVFGTGTKVTVLG
In the case of B1, the binding result is on record as “binds”.

B2: I037E07 (scFv)
scFv: QVQLVQSGAEVKKPGASVKVSCKASGYTFTNYGITWVRQAPGQGLEWMGWISAYNGNRNYAQKLQGRVTMTTDTSTSTAYMELRSLRSDDTAVYYCVRDGIDILLVPAALMDVWGRGTMVTVSSGGGGSGGGGSGGGGSQSVLTQPASVSGSPGQSITISCTGTSSDVGGYNYVSWYQQHPGKAPKLMIYEGSKRPSGVSNRFSGSKSGNTASLTISGLQAEDEADYYCSSYTTRSTRVFGGGTKLTVLG
On to B2, for which the binding result was “binds”.

B3: I037E12 (scFv)
scFv: EVQLVQSGAEVKKPGASVKVSCKASGYTFTNYGITWVRQAPGQGLEWMGWISAYNGNRNYAQKLQGRVTMTTDTSTSTAYMELRSLRSDDTAVYYCVRDGIDILLVPAALMDVWGKGTLVTVSSGGGGSGGGGSGGGGSQSVLTQPASVSGSPGQSITISCTGTSSDVGGYNYVSWYQQHPGKAPKLMIYEGNKRPSGVSNRFSGSKSGNTASLTISGLQAEDEADYYCSSYTTRSTRVFGGGTKLTVLG
B3: the binding result is “binds”.

B4: I016E05 (scFv)
scFv: QVQLQQSGAEVKKPGASVKVSCKASGYTFTKYTMHWVRQAPGQGPEWMGWINGGSGDTKYSRKFQGRVTITKDTSASAAYMELSSLGSEDTALYYCARATYDPLTGYSFDGFDIWGKGTMVTVSSGGGGSGGGGSGGGGSQSALTQPASVSGSPGQSITISCTGTSSDVGGYNYVSWYQQHPGKAPKLMIYEGSKRPSGVSNRFSGSKSGNTASLTISGLQAEDEADYYCSSYTTRSTRVFGGGTKLTVLG
For the molecule B4, the binding result is listed as “binds”.

B5: I018H08 (scFv)
scFv: QVQLQQSGAEVKKPGASVNVSCKASGYTFTKYTMHWVRQAPGQGPEWMGWINGGSGDTKYSRKFQGRVTITKDTSASAAYMELSSLGSEDTALYYCARATYDPLTGYSFDGFDIWGQGTMVTVSSGGGGSGGGGSGGGGSQSVLTQPASVSGSPGQSITISCTGTSSDVGGYNYVSWYQQHPGKAPKLMIYEGSKRPSGVSNRFSGSKSGNTASLTISGLQAEDEADYYCSSYTTRSTRVFGGGTKLTILG
notes: also called 1018H08
As to B5, the binding result is “binds”.

B6: I018H09 (scFv)
scFv: QVQLQQSGAEVKKPGASVKVSCKASGYTFTKYTMHWVRQAPGQGPEWMGWINGGSGDTKYSRKFQGRVTITKDTSASATYMELSSLGSEDTALYYCARATYDPLTGYSFDGFDIWGKGTMVTVSSGGGGSGGGGSGGGGSQSVLTQPASVSGSPGQSITISCTGTSSDVGGYNYVSWYQQHPGKAPKLMIYEGSKRPSGVSNRFSGSKSGNTASLTISGLQAEDEADYYCSSYTTRSTRVFGGGTKLTVLG
In the case of B6, the binding result is listed as “binds”.

B7: I031F09 (scFv)
scFv: QVQLVQSGAEVKKPGASVKVSCTVSGDSFSRHGISWVRQAPGQGLEWMGWISVYNGDTKYAQKVQGRVTMTTDTSTNTVYMELRRLRSDDTAVYYCARDEGRDLLTGYYWPNFFDSWGRGTLVTVSSGGGGSGGGGSGGGGSALSYVLTQPPSASGTPGQRVTISCSGSRPNIGGNTVNWYQQLPGAAPKLLIYSNSQRPSGVPDRFSGSKYGTSASLAISGLQSDDEADYYCAAWDDSLTGPVFGGGTKLTVLG
On to B7, for which the binding result is listed as “binds”.

B8: I031G11 (scFv)
scFv: QVQLVQSGAEVKKPGASVKVSCTVSGDSFSRHGISWVRQAPGQGLEWMGWISVYNGDTKYAQKVQGRVTMTTDTSTNTVYMELRRLRSDDTAVYYCARDEGRDLLTGYYWPNFFDSWGRGTLVTVSSGGGGSGGGGSGGGGSALSYVLTQPPSVSGTPGQKVTISCSGSRPNIGGNTVNWYQQLPGAAPKLLIYSNSQRPSGVPDRFSGSKYGTSASLAISGLQSDDEADYYCAAWDDSLTGPVFGGGTKLTVLG
As to B8, the binding result was “binds”.

B9: I016H07 (scFv)
scFv: GVQLVQSGAEVKKPGASVKVSCKASGYTFTHYAINWLRQAPGQRPEWMGTINTGNGNTKYSQNFQGRLTITRDTSASTVNMELSSLRSEDTAVYYCAGGYHDPLTSYNYNWFDPWGQGTMVTVSSGGGGSGGGGSGGGGSSELTQDPAVSVALGQTVRITCQGDSLRSYYTNWFQQKPGQAPLLVVYAKNKRPSGIPDRFSGSSSGNTASLTITGAQAEDEADYYCHSRDSSGNHVLFGGGTKLTVLG
As to B9, the binding result is reported as “binds”.

B10: I017D10 (scFv)
scFv: RVQLVQSGAEVKKPGASVKVSCKASGYTFTSDHISWVRQAPGQGLEWMGWISPHHGKTNYAQKLQGRVTMTTDTSTSTAYMELRSLRSDDTAVYYCARVQMDSEYYDLLTGINVGPYYFDYWGKGTLVTVSSGGGGSGGGGSGGGGSSELTQDPAVSVALGQTVRITCQGDSLRSYYASWYQQKPGQAPVLVIYGKNNRPSGIPDRFSGSSSGNTASLTITGAQAEDEADYYCNSRDSSGNHVVFGGGTKLTVLG
For B10, the binding result is on record as “binds”.

B11: I008A09 (scFv)
scFv: GVQLVQSGGGVVQPGGSLRLSCAASGFTFSSYGMHWVRQAPGKGLEWVAVISYDGSNKYYADSVKGRFTISRDNSKNTLYLQMNSLRAEDTAVYYCARDREAYYDILTGYYLYYYYMDVWGRGTTVTVSSGGGGSGGGGSGGGGSQSVLTQPASVSGSPGQSITISCTGTSSDVGGYNYVSWYQQHPGKAPKLMIYEGSKRPSGVSNRFSGSKSGNTASLTISGLQAEDEADYYCSSYTTGSTRVFGGGTKLTVLG
With B11, the binding result is “binds”.

B12: I007B03 (scFv)
scFv: GVQLQQSGAEVKKPGSSVKVSCKASGGTFNTSGITWVRQAPGQGLEWMGWMNPNTGDTAYAQEFQGRVIMTRDTSISTAYMELSSLRSEDTAVYYCARDGSYDILTGYYIDNYMDVWGQGTMVTVSSGGGGSGGGGSGGGGSQSVLTQPASVSGSPGQSITISCTGTSSDVGGYNYVSWYQQHPGKAPKLMIYEGSKRPSGVSNRFSGSKSGNTASLTISGLQAEDEADYYCSSYTTRSTRVFGGGTKLTVLG
Take B12: the binding result is recorded as “binds”.

B13: I008B01 (scFv)
scFv: QVQLVQSGAEVMKPGASVKVSCKASGYNFNNYAMQWVRQAPGQRLEWMGWIVPGNGKTKYSQKFQDRVTIARDTSASTVYMELSSLTSEDTAMYYCARATYDPLTGYSFDGFDIWGQGTTVTVSSGGGGSGGGGSGGGGSQSVLTQPASVSGSPGQSITISCTGTSSDVGGYNYVSWYQQHPGKAPKLMIYEGSKRPSGVSNRFSGSKSGNTASLTISGLQAEDEADYYCSSYTTRSTRVFGGGTKLTVLG
For B13, the binding result was “binds”.

B14: I026E03 (scFv)
scFv: EVQLVQSGGEVKRPGASVKVSCKASGYTFSRYGISWVRQAPGQGLEWMGWISAYNGKTSFAEKFQGRVTLTTDTSTTTVDMELRNLRSDDTAVYYCARTDYDILTGYPMGYFDPWGKGTLVTVSSGGGGSGGGGSGGGGSALSSELTQDPAVSVALGQTVKITCQGDSLRSFYAAWYQQKPGQAPILVISGKNNRPSGIPDRFSGSSSGNTASLTITGAQAEDEADYYCNSRDTSGNHYVFGAGTKLTVLG
B14: the binding result is “binds”.

B15: I001C09 (scFv)
scFv: GVQLVQSGPEVKKPGASVKVSCTASGYTFTSYGVSWVRQAPGQGLEWIGWISAHNGQTKYAEKFQGRVTMTRNTSISTAYMELSSLRSEDTAVYYCARDGSYDILTGYYIDNYMDVWGKGTMVTVSSGGGGSGGGGSGGGGSSELTQDPAVSVALGQTVRITCQGDSLRSYYTNWFQQKPGQAPLLVVYAKNKRPSGIPDRFSGSSSGNTASLTITGAQAEDEADYYCHSRDSSGNHVLFGGGTKLTVLG
As to B15, the binding result is “binds”.

B16: I018C10 (scFv)
scFv: GVQLVQSGPEVKKPGASVKVSCTASGYTFTSYGVSWVRQAPGQGLEWIGWISAHNGQTKYAEKFQGRVTMTRNTSISTAYMELSSLRSEDTVVYYCARDGSYDILTGYYIDNYMDVWGKGTMVTVSSGGGGSGGGGSGGGGSSELTQDPAVSVALGQTVRITCQGDSLRSYYTNWFQQKPGQAPLLVVYAKNKRPSGIPDRFSGSSSGNTASLTITGAQAEDEADYYCHSRDSSGNHVLFGGGTKLTVLG
Regarding B16, the binding result was “binds”.

B17: I018D07 (scFv)
scFv: GVQLVQSGPEVKKPGASVIVSCTASGYTFTSYGVSWVRQAPGQGLEWIGWISAHNGQTKYAEKFQGRVTMTRNTSISTAYMELSSLRSEDTAVYYCARDGSYDILTGYYIDNYMDVWGKGTMVTVSSGGGGSGGGGSGGGGSSELTQDPAVSVALGQTVRITCQGDSLRSYYTNWFQQKPGQAPLLVVYAKNKRPSGIPDRFSGSSSGNTASLTITGAQAEDEADYYCHSRDSSGNHVLFGGGTKLTVLG
B17: the binding result is recorded as “binds”.

B18: I006D08 (scFv)
scFv: QVQLQQSGAEVKKPGSSVRVSCKASGGTFNNNAINWVRQAPGQGLEWMGGIIPMFGTAKYSQNFQGRVAITADESTSTASMELSSLRSEDTAVYYCARSRDLLLFPHYGMDVWGRGTMVTVSSGGGGSGGGGSGGGGSAFSSELTQDPAVSVALGQTVRVTCQGDSLRSYYASWYQQKPGQAPVLVIYGKNNRPSGIPDRFSGSSSGNTASLTITGAQAEDEADYYCNSRDSSGNHWVFGGGTELTVLG
On to B18, for which the binding result is “binds”.
